In paper PMC6370916:
Positions count from the first letter of the chain named. In names and notes the source's numbering stands. Values belong to the binder of their own block, whether it stands above or below them.

Target: T1, recombinant human SEMA3C Fc chimera, Q99985
T1 chain: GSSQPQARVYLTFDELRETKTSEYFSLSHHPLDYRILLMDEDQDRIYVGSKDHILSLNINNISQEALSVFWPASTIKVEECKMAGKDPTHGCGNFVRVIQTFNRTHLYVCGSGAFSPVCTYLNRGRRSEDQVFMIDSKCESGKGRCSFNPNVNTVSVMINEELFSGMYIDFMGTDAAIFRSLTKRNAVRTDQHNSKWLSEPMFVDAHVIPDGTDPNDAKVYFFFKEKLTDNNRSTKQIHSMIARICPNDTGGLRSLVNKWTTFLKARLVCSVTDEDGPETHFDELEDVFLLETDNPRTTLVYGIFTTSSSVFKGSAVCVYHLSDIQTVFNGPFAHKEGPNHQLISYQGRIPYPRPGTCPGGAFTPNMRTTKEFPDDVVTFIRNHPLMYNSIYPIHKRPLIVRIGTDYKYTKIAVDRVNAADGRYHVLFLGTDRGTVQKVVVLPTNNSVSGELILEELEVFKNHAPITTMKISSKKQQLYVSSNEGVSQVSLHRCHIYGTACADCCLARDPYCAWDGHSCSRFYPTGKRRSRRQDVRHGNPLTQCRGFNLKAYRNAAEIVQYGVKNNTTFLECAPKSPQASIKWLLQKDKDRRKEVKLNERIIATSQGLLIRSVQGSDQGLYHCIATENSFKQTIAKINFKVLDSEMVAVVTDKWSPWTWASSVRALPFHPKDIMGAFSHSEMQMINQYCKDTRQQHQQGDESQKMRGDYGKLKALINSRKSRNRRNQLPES
Experiment: Saturation receptor-ligand binding assay
Conditions: chain shown with the change, SEMA3C 0-10 nM, read-out O.D. 450 nm

[1] = NRP2 co-expressed with WT PLXNA1, parent: 0.63 nM
[2] = NRP2 co-expressed with WT PLXNA1, parent: 0.65
[3] = NRP2 co-expressed with WT PLXNA2, parent: 0.89 nM
[4] = NRP2 co-expressed with WT PLXNA2, parent: 0.60
[5] = NRP2 co-expressed with WT PLXNA3, parent: 0.93 nM
[6] = NRP2 co-expressed with WT PLXNA3, parent: 0.54
[7] = NRP2 co-expressed with WT PLXNA4, parent: 1.03 nM
[8] = NRP2 co-expressed with WT PLXNA4, parent: 0.65
[9] = cells expressing NRP2 alone (no PLXNA co-expressed), parent: 0.81 nM
[10] = cells expressing NRP2 alone (no PLXNA co-expressed), parent: 0.89

Kd [1]: 0.67 nM
other: Bmax [2]: 0.55 O.D. 450 nm
Kd [3]: 1 nM
other: Bmax [4]: 0.52 O.D. 450 nm
Kd [5]: 1.12 nM
other: Bmax [6]: 0.42 O.D. 450 nm
Kd [7]: 1.25 nM
other: Bmax [8]: 0.55 O.D. 450 nm
Kd [9]: 0.73 nM
other: Bmax [10]: 0.84 O.D. 450 nm
B1: human Neuropilin 2, wild type, O60462 A506V (protein)
chain: RGQPDPPCGGRLNSKDAGYITSPGYPQDYPSHQNCEWIVYAPEPNQKIVLNFNPHFEIEKHDCKYDFIEIRDGDSESADLLGKHCGNIAPPTIISSGSMLYIKFTSDYARQGAGFSLRYEIFKTGSEDCSKNFTSPNGTIESPGFPEKYPHNLDCTFTILAKPKMEIILQFLIFDLEHDPLQVGEGDCKYDWLDIWDGIPHVGPLIGKYCGTKTPSELRSSTGILSLTFHTDMAVAKDGFSARYYLVHQEPLENFQCNVPLGMESGRIANEQISASSTYSDGRWTPQQSRLHGDDNGWTPNLDSNKEYLQVDLRFLTMLTAIATQGAISRETQNGYYVKSYKLEVSTNGEDWMVYRHGKNHKVFQANNDATEVVLNKLHAPLLTRFVRIRPQTWHSGIALRLELFGCRVTDAPCSNMLGMLSGLIADSQISASSTQEYLWSPSAARLVSSRSGWFPRIPQAQPGEEWLQVDLGTPKTVKGVIIQGVRGGDSITAVEARAFVRKFKVSYSLNGKDWEYIQDPRTQQPKLFEGNMHYDTPDIRRFDPIPAQYVRVYPERWSPAGIGMRLEVLGCDWTDSKPTVETLGPTVKSEETTTPYPTEEEATECGENCSFEDDKDLQLPSGFNCNFDFLEEPCGWMYDHAKWLRTTWASSSSPNDRTFPDDRNFLRLQSDSQREGQYARLISPPVHLPRSPVCMEFQYQATGGRGVALQVVREASQESKLLWVIREDQGGEWKHGRIILPSYDMEYQIVFEGVIGKGRSGEIAIDDIRISTDVPLENCMEPISAFAGENFKVDIPEIHEREGYEDEIDDEYEVDWSNSSSATSGSGAPSTDKEKSWLYTLDPILITIIAMSSLGVLLGATCAGLLLYCTCSYSGLSSRSCTTLENYNFELYDGLKHKVKMNHQKCCSEA

Kd [1]: 0.68 nM
other: Bmax [2]: 0.66 O.D. 450 nm
Kd [3]: 1.01 nM
other: Bmax [4]: 0.67 O.D. 450 nm
Kd [5]: 1.18 nM
other: Bmax [6]: 0.52 O.D. 450 nm
Kd [7]: 1.07 nM
other: Bmax [8]: 0.59 O.D. 450 nm
Kd [9]: 0.83 nM
other: Bmax [10]: 0.93 O.D. 450 nm
B2: human Neuropilin 2, wild type, O60462 V573L (protein)
chain: B1 chain with V486A, V553L
